94 variants from the supplement of paper PMC10567573 can be followed below.

B1: ZNF232 (parent)
chain: FPKSEQVYLHFLSVVTEDGPEPKD
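Also: lentivirally expressed fusions sorted by FACS into six bins by GFP to DsRed ratio, PSI derived from sequencing read proportions per bin multiplied by bin number.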

In the data set the parent is B1. As to the kind of experiment: protein stability index of a GFP-peptide fusion (GPS, HEK-293T) (PSI 1-6); higher = more stable. The note with it: c terminus: a fixed tail appended.
FPKSEQVYLHFLLVVTEDGPEPKD: the protein stability index was 1.76.

For the variant FPKSEQVYLHFLRVVTEDGPEPKD, the protein stability index came out at 1.98.

For FPKSEQVYLHFLPVVTEDGPEPKD, the protein stability index turned out to be 2.14.

For the variant FPKSEQVYLHFLDVVTEDGPEPKD, the protein stability index is 3.54.

As to FPKSEQVYLHFLGVVTEDGPEPKD, the protein stability index was 1.5.

Take FPKSEQVYLHFLTVVTEDGPEPKD: the protein stability index turned out to be 1.78.

Regarding FPKSEQVYLHFLAVVTEDGPEPKD, the protein stability index worked out at 1.89.

Take FPKSEQVYLHFLYVVTEDGPEPKD: the protein stability index came to 3.15.

Consider FPKSEQVYLHFLMVVTEDGPEPKD, for which the protein stability index was determined as 1.96.

As to FPKSEQVYLHFLCVVTEDGPEPKD, the protein stability index worked out at 2.31.

FPKSEQVYLHFLEVVTEDGPEPKD: the protein stability index came out at 2.98.

On to FPKSEQVYLHFLFVVTEDGPEPKD, for which the protein stability index is 1.66.

With FPKSEQVYLHFLHVVTEDGPEPKD, the protein stability index is 1.81.

Consider FPKSEQVYLHFLQVVTEDGPEPKD, for which the protein stability index amounted to 1.53.

As to FPKSEQVYLHFLKVVTEDGPEPKD, the protein stability index amounted to 2.48.

Turning to FPKSEQVYLHFLNVVTEDGPEPKD, the protein stability index was 2.46.

Regarding FPKSEQVYLHFLSQVTEDGPEPKD, the protein stability index worked out at 2.82.

Turning to FPKSEQVYLHFLSLVTEDGPEPKD, the protein stability index worked out at 2.86.

For the variant FPKSEQVYLHFLSWVTEDGPEPKD, the protein stability index was 1.29.

Turning to FPKSEQVYLHFLSIVTEDGPEPKD, the protein stability index was 3.05.

On to FPKSEQVYLHFLSEVTEDGPEPKD, for which the protein stability index came to 3.

Turning to FPKSEQVYLHFLSKVTEDGPEPKD, the protein stability index was 2.29.

Turning to FPKSEQVYLHFLSCVTEDGPEPKD, the protein stability index is 1.92.

On to FPKSEQVYLHFLSHVTEDGPEPKD, for which the protein stability index was 2.34.

For FPKSEQVYLHFLSNVTEDGPEPKD, the protein stability index stood at 3.09.

FPKSEQVYLHFLSSVTEDGPEPKD: the protein stability index was 1.97.

Consider FPKSEQVYLHFLSFVTEDGPEPKD, for which the protein stability index worked out at 2.18.

In the case of FPKSEQVYLHFLSRVTEDGPEPKD, the protein stability index is 2.45.

Consider FPKSEQVYLHFLSPVTEDGPEPKD, for which the protein stability index was 3.14.

For the variant FPKSEQVYLHFLSGVTEDGPEPKD, the protein stability index was 2.68.

Turning to FPKSEQVYLHFLSTVTEDGPEPKD, the protein stability index came to 2.23.

On to FPKSEQVYLHFLSYVTEDGPEPKD, for which the protein stability index is 3.58.

On to FPKSEQVYLHFLSDVTEDGPEPKD, for which the protein stability index stood at 3.72.

FPKSEQVYLHFLSMVTEDGPEPKD: the protein stability index was 2.37.

On to FPKSEQEYLHFLSVVTEDGPEPKD, for which the protein stability index turned out to be 2.8.

For the variant FPKSEQRYLHFLSVVTEDGPEPKD, the protein stability index is 2.49.

On to FPKSEQTYLHFLSVVTEDGPEPKD, for which the protein stability index came to 2.1.

As for FPKSEQSYLHFLSVVTEDGPEPKD, the protein stability index is 2.59.

On to FPKSEQCYLHFLSVVTEDGPEPKD, for which the protein stability index was found to be 1.63.

For the variant FPKSEQNYLHFLSVVTEDGPEPKD, the protein stability index is 2.27.

Turning to FPKSEQPYLHFLSVVTEDGPEPKD, the protein stability index amounted to 2.97.

As for FPKSEQKYLHFLSVVTEDGPEPKD, the protein stability index was determined as 3.21.

As to FPKSEQMYLHFLSVVTEDGPEPKD, the protein stability index was found to be 3.74.

Consider FPKSEQIYLHFLSVVTEDGPEPKD, for which the protein stability index was found to be 1.97.

As to FPKSEQDYLHFLSVVTEDGPEPKD, the protein stability index turned out to be 1.91.

As for FPKSEQHYLHFLSVVTEDGPEPKD, the protein stability index worked out at 1.61.

Take FPKSEQAYLHFLSVVTEDGPEPKD: the protein stability index worked out at 2.2.

FPKSEQFYLHFLSVVTEDGPEPKD: the protein stability index is 1.68.

For the variant FPKSEQYYLHFLSVVTEDGPEPKD, the protein stability index worked out at 1.02.

In the case of FPKSEQQYLHFLSVVTEDGPEPKD, the protein stability index was determined as 1.88.

Consider FPKSEQLYLHFLSVVTEDGPEPKD, for which the protein stability index worked out at 2.32.

Regarding FPKSEQVYLHFFSVVTEDGPEPKD, the protein stability index turned out to be 1.73.

Consider FPKSEQVYLHFWSVVTEDGPEPKD, for which the protein stability index is 1.21.

Turning to FPKSEQVYLHFQSVVTEDGPEPKD, the protein stability index worked out at 3.99.

On to FPKSEQVYLHFVSVVTEDGPEPKD, for which the protein stability index amounted to 2.48.

For FPKSEQVYLHFMSVVTEDGPEPKD, the protein stability index was 3.84.

In the case of FPKSEQVYLHFSSVVTEDGPEPKD, the protein stability index was 2.75.

For FPKSEQVYLHFKSVVTEDGPEPKD, the protein stability index amounted to 3.6.

As for FPKSEQVYLHFPSVVTEDGPEPKD, the protein stability index was found to be 2.34.

Regarding FPKSEQVYLHFCSVVTEDGPEPKD, the protein stability index turned out to be 2.07.

FPKSEQVYLHFGSVVTEDGPEPKD: the protein stability index amounted to 3.24.

As for FPKSEQVYLHFTSVVTEDGPEPKD, the protein stability index was determined as 2.58.

With FPKSEQVYLHFESVVTEDGPEPKD, the protein stability index stood at 3.96.

Regarding FPKSEQVYLHFDSVVTEDGPEPKD, the protein stability index worked out at 3.67.

Regarding FPKSEQVYLHFNSVVTEDGPEPKD, the protein stability index was 3.61.

Take FPKSEQVYLHFISVVTEDGPEPKD: the protein stability index came out at 1.97.

Turning to FPKSEQVYLHFHSVVTEDGPEPKD, the protein stability index was determined as 3.49.

Turning to FPKQEQVYLHFLSVVTEDGPEPKD, the protein stability index was determined as 2.29.

Turning to FPKYEQVYLHFLSVVTEDGPEPKD, the protein stability index stood at 3.17.

With FPKNEQVYLHFLSVVTEDGPEPKD, the protein stability index worked out at 3.06.

As to FPKWEQVYLHFLSVVTEDGPEPKD, the protein stability index was 2.14.

As for FPKVEQVYLHFLSVVTEDGPEPKD, the protein stability index amounted to 1.61.

On to FPKTEQVYLHFLSVVTEDGPEPKD, for which the protein stability index was 2.34.

In the case of FPKREQVYLHFLSVVTEDGPEPKD, the protein stability index was determined as 1.66.

With FPKPEQVYLHFLSVVTEDGPEPKD, the protein stability index was 1.95.

In the case of FPKSMQVYLHFLSVVTEDGPEPKD, the protein stability index worked out at 2.04.

Consider FPKSKQVYLHFLSVVTEDGPEPKD, for which the protein stability index turned out to be 3.34.

On to FPKSSQVYLHFLSVVTEDGPEPKD, for which the protein stability index came to 1.7.

For the variant FPKSFQVYLHFLSVVTEDGPEPKD, the protein stability index worked out at 2.35.

Regarding FPKSWQVYLHFLSVVTEDGPEPKD, the protein stability index came to 2.02.

Regarding FPKSAQVYLHFLSVVTEDGPEPKD, the protein stability index came to 2.29.

As to FPKSIQVYLHFLSVVTEDGPEPKD, the protein stability index was determined as 2.23.

Take FPKSPQVYLHFLSVVTEDGPEPKD: the protein stability index was 1.75.

Regarding FPKSGQVYLHFLSVVTEDGPEPKD, the protein stability index was 1.61.

Turning to FPKSLQVYLHFLSVVTEDGPEPKD, the protein stability index came to 2.47.

Turning to FPKSHQVYLHFLSVVTEDGPEPKD, the protein stability index turned out to be 2.31.

Regarding FPKSCQVYLHFLSVVTEDGPEPKD, the protein stability index turned out to be 1.65.

For the variant FPKSVQVYLHFLSVVTEDGPEPKD, the protein stability index stood at 2.58.

As for FPKSTQVYLHFLSVVTEDGPEPKD, the protein stability index came out at 1.59.

On to FPKSDQVYLHFLSVVTEDGPEPKD, for which the protein stability index amounted to 2.84.

As for FPKSYQVYLHFLSVVTEDGPEPKD, the protein stability index was determined as 1.19.

On to FPKSQQVYLHFLSVVTEDGPEPKD, for which the protein stability index turned out to be 1.9.

For the variant FPKSEQVYLHFLSVHTEDGPEPKD, the protein stability index was found to be 2.4.

On to FPKSEQVYLHFLSVKTEDGPEPKD, for which the protein stability index was 2.27.
